From US7642400B2, “Protein kinase C iota” (Mayo Foundation for Medical Education and Research, priority 2004, dated 2010)

T1: interaction of PKCι polypeptides with PAR6 polypeptides (Homo sapiens, UniProt P41743)
T1 construct: amino acids 1-113 or a full-length PKCι polypeptide; 6xHis; made in house
T1 sequence (P41743 10-122): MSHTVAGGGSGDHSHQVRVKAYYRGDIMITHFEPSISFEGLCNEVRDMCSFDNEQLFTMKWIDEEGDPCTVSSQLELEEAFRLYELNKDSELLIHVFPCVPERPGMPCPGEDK


Columns and labels:
[1] = biological target: T1, interaction of PKCι polypeptides with PAR6 polypeptides; test: Secondary screen: PYN bound to plate-immobilised biotin-tagged PAR6; type: binding; conditions: increasing amounts, e.g. 0, 0.1, 1, 10, 100, and 100 μM
Description: Multiple test compounds that were classified as hits in the primary screen as well as additional related compounds were evaluated in a secondary screen designed as follows. Briefly, a 96-well microtiter plate coated with streptavidin (Nunc #436014) was incubated for 2-4 hours at room temperature with 100 μl of a 20-30 μg/ml solution of biotin-tagged PAR6 (whole polypeptide) in phosphate-buffered saline containing Tween-20 (PBST). Plates were washed twice with PBST, then once with incubation buffer (50 mM Tris, pH 8.0; 135 mM NaCl; 10% glycerol; 0.002% EDTA). Incubation buffer (50 μl) was added to each well. The compounds to be tested were added (10 μl) followed by PYN (50 μl) diluted in incubation buffer to an approximate concentration of 4000-5000 relative fluorescent units per 50 μl. Plates were incubated overnight at 4° C. Plates were washed twice with incubation buffer, after which 50 μl incubation buffer was added to retain moisture in the wells. The amount of PYN bound on the plates was determined by measuring yellow fluorescence (532/526) in a Typhoon imager. Fluorescence was quantitated by Softmax Pro software.
A dose-response analysis was performed using the secondary screening assay and increasing amounts (e.g., 0, 0.1, 1, 10, 100, and […]) of gossypol, hexestrol, thimerosal, ebselen, ATG, ATM, ellagic acid, cisplatin, apomorphine, or phenylmercuric acetate.

[2] = biological target: T1, interaction of PKCι polypeptides with PAR6 polypeptides; test: Primary screen: FRET assay of PKCι113-YFP-N1 (PYN) and PAR6125-CFP-C1; conditions: FIG. 18; less binding as concentration increased
Description: A primary screen was performed as follows to identify test compound having the potential to inhibit the interaction of PKCι polypeptides with PAR6 polypeptides. Bacterially expressed PKCι113-YFP-N1 (PYN) was isolated from the soluble fraction of bacterial lysates by affinity purification according to the manufacturer's protocol (B-PER 6×His Purification Kit; Pierce). The purified polypeptide was dialyzed against Tris buffer (50 mM Tris, pH 8.0; 135 mM NaCl; 10% glycerol; 0.002% EDTA) containing 2 M urea. PAR6125-CFP-C1 recombinant polypeptide was isolated from the inclusion body pellets of bacterial lysates using the B-PER reagent (Pierce) according to the manufacturer's protocol. […] Yields were measured by fluorescence in a SpectraMax Gemini microplate reader (Molecular Devices).
To perform the assay, PYN was diluted to 4000 relative fluorescent units/50 μl in Tris buffer plus 1 M urea, and PAR6125-CFP-C1 was diluted to 400 relative fluorescent units/50 μl Tris buffer plus 1 M urea. […] Fluorescence was measured in a SpectraMax Gemini plate reader. Cyan fluorescence was measured at excitation 395 nm, emission 475 nm, and cutoff of 455 nm. Yellow fluorescence was measured at excitation 395 nm, emission 529, and cutoff of 515=n. […]

[3] = tested on: Rac1 activity in A549 cells; test: Rac1 activity assay (affinity isolation of GTP-bound Rac1) in A549 cells; type: cell-based, human; conditions: A549 cells treated with PSI or stably expressing PKCι(1-113); FIG. 12E
Description: Rac 1 Activity Assays: Rac1 activity in A549 and H1299 cell transfectants was assessed by affinity isolation of GTP-bound Rac1 using binding domains of PAK as described previously (Sander et al., J. Cell Biol., 143(5):1385-98 (1998)). Briefly, cells were lysed in lysis buffer (50 mM Tris-HCl pH 7.5, 150 mM NaCl, 20 mM MgCl2, 5 mM EGTA, 10% glycerol, 1% Triton X-100, 1% NP-40, 25 mM NaF, 1 mM phenylmethylsulfonyl fluoride, 1 mM sodium orthovanadate, 10 μg/ml leupeptin, 10 μg/ml aprotinin) at 4° C. for 5 min. Cellular debris was removed by centrifugation at 20,000×g for 5 min, and supernatants were transferred to new tubes containing 20 μl of GST-p21-binding domain of PAK1 (PAK1-PBD) coupled to agarose beads (Upstate). An aliquot of each supernatant was reserved to determine total Rac1 and actin expression by immunoblot analysis. Following a 30-minute incubation at 4° C., the agarose beads were collected by centrifugation and washed three times in wash buffer (50 mM Tris-HCl pH 7.5, 150 mM NaCl, 20 mM MgCl2, 5 mM EGTA, 10% glycerol, 1% Triton X-100, 1% NP-40, 25 mM NaF, 1 mM phenylmethylsulfonyl fluoride, 1 mM sodium orthovanadate, 10 μg/ml leupeptin, 10 μg/ml aprotinin). Bound polypeptides were solubilized by the addition of 30 μl of SDS sample buffer, resolved by SDS-PAGE, and subjected to immunoblot analysis for Rac1. An equivalent aliquot of the total cell lysate was subjected to immunoblot analysis to determine total Rac1 expression.
Rac 1 Activity Assays: A549 cells were incubated with the indicated concentration of ATG for one hour prior to analysis. Rac1 activity in A549 cells was assessed by affinity isolation of GTP-bound Rac1 using binding domains of PAK as described elsewhere (Sander et al., J. Cell Biol., 143:1385-98 (1998)). Briefly, cells were lysed in lysis buffer (50 mM Tris-HCl pH 7.5, 150 mM NaCl, 20 mM MgCl2, 5 mM EGTA, 10% glycerol, 1% Triton X-100, 1% NP-40, 25 mM NaF, 1 mM phenylmethylsulfonyl fluoride, 1 mM sodium orthovanadate, 10 μg/ml leupeptin, and 10 μg/ml aprotinin) at 4° C. for 5 min. […]

[4] = tested on: A549 cells; test: Soft agar growth assay (anchorage-independent growth) of A549 cells; type: cell-based, human; conditions: A549 cells expressing PKCι(1-113) versus A549/LZRS; FIG. 12G
Description: (§1) Anchorage-independent growth was assayed by the ability of cells to form colonies in soft agar. The bottom agar consisted of growth medium containing 10% FBS and 0.75% agarose in 60-mm tissue culture dishes. Nine hundred cells were resuspended in growth medium containing 10% FBS and 0.75% agarose, and plated on top of the bottom agar. The cells were incubated at 37° C. in 5% CO2. Cell colonies were visualized and quantified under a dissecting microscope (Olympus) after 4-6 weeks in culture.
as §1, with “Soft Agar Growth Assays: Anchorage-independent growth” for “Anchorage-independent growth”, “and 0.75% agarose and plated” for “and 0.75% agarose, and plated”, “bottom agar. ATG was added at the indicated concentration to both bottom and top agar solutions. The cells” for “bottom agar. The cells”

[5] = tested on: A549 cells; test: Cell invasion through Matrigel-coated chambers, A549 transfectants; type: cell-based, human; conditions: A549 cells expressing PKCι(1-113) versus A549/LZRS; FIG. 12F
Description: Cell Invasion and Soft Agar Growth Assays: A549 and H1299 transfectants were assayed for cell invasion using Matrigel-coated Transwell cell culture chambers (6,5-mm diameter, 8-μm pore size; BD Biosciences). A549 and H1299 cell transfectants in logarithmic growth phase were harvested with trypsin, the trypsin neutralized with serum-containing medium, and the cells pelleted and resuspended in serum-free growth medium. 2.5×10^4 cells were placed into the upper chamber of the Transwell insert, and growth medium containing 10% FBS was added to the lower chamber. After 22 hours at 37° C. in 5% CO2, non-invasive cells in the upper chambers were removed and invasive cells were fixed in 100% methanol and stained with 0.5% crystal violet (Sigma) in 2% ethanol. Cells which had invaded through the Matrigel-coated filter were counted on a microscope (X40, Olympus) using a calibrated ocular grid.

[6] = tested on: RIE/Ras cells; test: Soft agar colony formation of RIE/Ras cells; type: cell-based, rat; conditions: RIE/Ras/PKCι(1-113) versus RIE/Ras cells; FIG. 9
Text: To assess anchorage-independent growth, RIE cell transfectants were suspended in DMEM supplemented with 10% FBS, 1.5% agarose, and a 1% insulin, transferrin and selenium solution (Sigma-Aldrich), and plated (300 cells/60 mm dish) on a layer of 1.5% agar containing the same medium. Cell colonies were fixed with 20% methanol and stained with Giemsa after 7-14 days in culture and quantified under a dissecting microscope.

Molecule | dose-response analysis using the secondary screening assay [1] | dose-response in the FRET assay: relative binding of PKCι and PAR6 polypeptides [2] | Rac1 activity [3] | anchorage-independent growth in soft agar [4] | A549 cell invasion [5] | soft agar colony formation [6]
O=C(O)CC([S-])C(=O)O.[Au+] (stereo not drawn) [ATM, aurothiomaleate] | dose-dependent response was detected | dose-dependent effect |  |  |  | 
PKCι(1-113): first 113 amino acids of PKCι, encompassing the PB1 domain, expressed in cells from a plasmid (protein) MPTQRDSSTMSHTVAGGGSGDHSHQVRVKAYYRGDIMITHFEPSISFEGLCNEVRDMCSFDNEQLFTMKWIDEEGDPCTVSSQLELEEAFRLYELNKDSELLIHVFPCVPERP |  |  | inhibits Rac1 activity | inhibits | inhibits | significantly less soft agar colony formation
